Assay results reported in article PMC5566995, “Development and Characterization of a Camelid Single Domain Antibody–Urease Conjugate That Targets Vascular Endothelial Growth Factor Receptor 2” (Frontiers in Immunology, 2017).

B1: biotin-V21H4 (VHH)
VHH: QVQLVESGGGLVQAGGSLRLSCAASGRAFSSYAMGWFRQAPGKERELVAAISWSDDSTYYANSVKGRFTISRDNAKSAVYLQMNSLKPEDTAVYYCAAHKSLQRPDEYTYWGQGTQVTVSS
notes: residues 1-127: V21 core (122 residues, ending at S122) and the first of the added C-terminal residues G123-C136; C136 is the added terminal cysteine; 136 residues in all; also called V21H4 antibody; biotinylated V21H4
B2: VEGFR1/Fc (Fc fusion, UniProt P17948 27-758, looked up)
chain: SKLKDPELSLKGTQHIMQAGQTLHLQCRGEAAHKWSLPEMVSKESERLSITKSACGRNGKQFCSTLTLNTAQANHTGFYSCKYLAVPTSKKKETESAIYIFISDTGRPFVEMYSEIPEIIHMTEGRELVIPCRVTSPNITVTLKKFPLDTLIPDGKRIIWDSRKGFIISNATYKEIGLLTCEATVNGHLYKTNYLTHRQTNTIIDVQISTPRPVKLLRGHTLVLNCTATTPLNTRVQMTWSYPDEKNKRASVRRRIDQSNSHANIFYSVLTIDKMQNKDKGLYTCRVRSGPSFKSVNTSVHIYDKAFITVKHRKQQVLETVAGKRSYRLSMKVKAFPSPEVVWLKDGLPATEKSARYLTRGYSLIIKDVTEEDAGNYTILLSIKQSNVFKNLTATLIVNVKPQIYEKAVSSFPDPALYPLGSRQILTCTAYGIPQPTIKWFWHPCNHNHSEARCDFCSNNEESFILDADSNMGNRIESITQRMAIIEGKNKMASTLVVADSRISGIYICIASNKVGTVGRNISFYITDVPNGFHVNLEKMPTEGEDLKLSCTVNKFLYRDVTWILLRTVNNRTMHYSISKQKMAITKEHSITLNLTIMNVSLQDSGTYACRARNVYTGEEILQKKEITIRDQEAPYLLRNLSDHTVAISSSTTLDCHANGVPEPQITWFKNNHKIQQEPGIILGPGSSTLFIERVTEEDEGVYHCKATNQKGSVESSAYLTVQGTSDKSNLE
notes: vascular endothelial growth factor receptor 1 (VEGFR1), recombinant Fc fusion protein; also called recombinant Fc fusion protein of VEGFR1; source: bought: R&D Systems

Tests used:
[1] = target: T1, VEGFR2 expressed by 293/KDR cells (Homo sapiens (assumed; KDR), UniProt P35968); assay: flow cytometry on cells; 293/KDR cells incubated with conjugate or biotinylated antibody in staining buffer (PBS with Ca2+ and Mg2+, 0.02% NaN3, 2% FBS) at 2-8 C for 1 h; conjugates detected with mouse anti-urease and AF488-anti-mouse IgG, biotinylated antibody with PE-SA; signal as ratio to 293 cells or to a biotin-isotype control; details: one partner purified
T1 construct: vascular endothelial growth factor receptor 2 (VEGFR2, KDR) expressed on 293/KDR cells; source: 293/KDR cells, on the cell surface

[2] = target: T2, recombinant VEGFR2/Fc (Homo sapiens (assumed), UniProt P35968); assay: ELISA; VEGFR/Fc (0.25 ug/mL) captured on plates coated with goat anti-human IgG-Fc; dilutions of antibody-urease conjugate or biotinylated antibody in 0.1% BSA/T-TBS, room temperature, 2 h; conjugates detected with rabbit anti-urease and goat anti-rabbit-AP, biotinylated antibody with streptavidin-alkaline phosphatase; A405; details: both partners purified
T2 construct: vascular endothelial growth factor receptor 2 (VEGFR2), recombinant Fc fusion protein; Fc fusions of this supplier usually hold the extracellular domain (surmise); also called vascular endothelial growth factor receptor 2 Fc fusion; source: bought: R&D Systems

[3] = target: T3, V21H4-DOS47 (llama | jack bean (Canavalia ensiformis)); assay: as above; details: both partners purified
T3 construct: as the chain of m1; residues 1-127 of V21H4; urease, jack bean (Canavalia ensiformis), homohexamer, purified from crude urease; Antibody-urease conjugate; the standard method gives 8.7-9.2; also called V21-DOS47; V21H4-DOS47 (8.8 antibodies/urease); source: conjugate purified by diafiltration; copies: 8.8 + 6

T1 sequence (P35968 20-1356): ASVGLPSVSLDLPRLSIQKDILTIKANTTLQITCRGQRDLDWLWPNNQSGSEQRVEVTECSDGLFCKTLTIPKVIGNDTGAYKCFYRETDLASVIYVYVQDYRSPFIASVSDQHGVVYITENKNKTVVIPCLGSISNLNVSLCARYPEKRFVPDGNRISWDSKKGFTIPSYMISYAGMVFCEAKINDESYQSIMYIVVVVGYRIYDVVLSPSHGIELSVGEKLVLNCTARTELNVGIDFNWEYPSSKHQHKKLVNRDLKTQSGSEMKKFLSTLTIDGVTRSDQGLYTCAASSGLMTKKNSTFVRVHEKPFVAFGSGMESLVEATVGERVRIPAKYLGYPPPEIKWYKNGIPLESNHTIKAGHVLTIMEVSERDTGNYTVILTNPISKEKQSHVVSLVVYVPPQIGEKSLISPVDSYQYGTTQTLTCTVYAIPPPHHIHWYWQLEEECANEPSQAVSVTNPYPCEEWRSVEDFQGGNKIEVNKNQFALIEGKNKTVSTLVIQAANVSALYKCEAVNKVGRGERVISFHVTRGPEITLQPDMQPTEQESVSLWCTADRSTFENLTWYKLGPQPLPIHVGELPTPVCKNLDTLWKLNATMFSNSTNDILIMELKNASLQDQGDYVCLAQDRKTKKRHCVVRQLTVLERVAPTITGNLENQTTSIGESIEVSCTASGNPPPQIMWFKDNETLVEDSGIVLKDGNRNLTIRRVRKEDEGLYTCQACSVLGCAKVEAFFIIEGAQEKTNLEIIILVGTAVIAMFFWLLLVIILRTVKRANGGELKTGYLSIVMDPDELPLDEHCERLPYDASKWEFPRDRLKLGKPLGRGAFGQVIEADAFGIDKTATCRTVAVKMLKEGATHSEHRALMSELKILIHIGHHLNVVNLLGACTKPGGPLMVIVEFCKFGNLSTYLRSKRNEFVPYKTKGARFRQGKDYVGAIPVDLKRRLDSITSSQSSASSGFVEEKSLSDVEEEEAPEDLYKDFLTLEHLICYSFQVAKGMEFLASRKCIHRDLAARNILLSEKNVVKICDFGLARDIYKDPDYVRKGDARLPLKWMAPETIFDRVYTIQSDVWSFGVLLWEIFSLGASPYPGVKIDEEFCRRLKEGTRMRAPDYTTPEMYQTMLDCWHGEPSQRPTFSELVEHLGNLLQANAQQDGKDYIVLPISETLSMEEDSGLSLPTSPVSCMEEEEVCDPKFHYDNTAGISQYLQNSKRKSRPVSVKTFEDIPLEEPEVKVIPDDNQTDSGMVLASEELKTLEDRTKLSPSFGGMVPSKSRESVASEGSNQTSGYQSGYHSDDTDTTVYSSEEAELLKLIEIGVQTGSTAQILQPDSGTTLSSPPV
T2 sequence (P35968 20-764): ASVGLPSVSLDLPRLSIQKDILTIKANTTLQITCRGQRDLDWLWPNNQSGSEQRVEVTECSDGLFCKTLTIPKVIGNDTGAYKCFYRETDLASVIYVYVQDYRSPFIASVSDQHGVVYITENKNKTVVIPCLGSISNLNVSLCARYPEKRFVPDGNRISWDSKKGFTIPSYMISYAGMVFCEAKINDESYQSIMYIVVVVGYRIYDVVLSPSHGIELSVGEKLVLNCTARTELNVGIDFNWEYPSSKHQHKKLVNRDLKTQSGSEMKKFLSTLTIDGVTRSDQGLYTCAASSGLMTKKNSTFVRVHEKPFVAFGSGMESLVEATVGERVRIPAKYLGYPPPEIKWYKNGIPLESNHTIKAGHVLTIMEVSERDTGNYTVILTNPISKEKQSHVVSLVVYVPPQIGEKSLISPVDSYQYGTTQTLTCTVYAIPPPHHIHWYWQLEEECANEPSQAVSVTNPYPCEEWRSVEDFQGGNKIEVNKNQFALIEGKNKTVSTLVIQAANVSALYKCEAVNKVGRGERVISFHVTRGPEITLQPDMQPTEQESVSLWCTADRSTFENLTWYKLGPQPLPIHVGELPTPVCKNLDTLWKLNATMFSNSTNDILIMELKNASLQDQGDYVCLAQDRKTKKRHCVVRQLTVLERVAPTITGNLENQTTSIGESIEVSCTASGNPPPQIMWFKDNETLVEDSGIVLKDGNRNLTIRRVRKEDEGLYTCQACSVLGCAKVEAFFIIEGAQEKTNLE

Row | Binder | EC50 [1] | EC50 [2] | binding result [3]
1 | B1 | 1.6 nM | 1.8 nM | 
2 | B2 |  |  | no binding
